Experimental data as given in patent US20240166754A1 (SYNTHEKINE, published 2024).

What follows are binders tested against T1, extracellular domain of human IL12RB1 (hIL12Rb1 ECD antigen) (human, UniProt P42701 24-545) (assay: periplasmic extract ELISA on antigen-coated plate after phage biopanning).
T1 construct: also called IL12Rβ1; CD212
Method: Upon completion of the biopanning of Example 3, three 96-well plates of individual phage clones were isolated in order to perform periplasmic extract ELISA (PE-ELISA) on IL12Rb1 coated plates to identify positive VHH binders that selectively bound IL12Rb1. A 96-well plate was coated with IL12Rb1 and PBS under the same conditions. Next, wells were blocked at 37° ° C. for 1 h. Then, 100 μl of extracted antibodies was added to each well and incubated for 1 h. Subsequently, 100 μl of anti-tag polyclonal antibody conjugated to HRP was added to each well and incubated at 37 °C for 1 h. Plates were developed with TMB substrate. The reaction was stopped by the addition of H2SO4. Absorbance at 450 nm was read on a microtiter plate reader. Antibodies with absorbance of the antigen-coated well at least threefold greater than PBS-coated control are VHHs that specifically bind to IL12Rb1. Positive clones were sequenced, and sequences analyzed to identify unique clonotypes.

binding result	Binder
binds	hIL12Rb1_VHH5 (VHH, Camel VHH) VHH: QVQLQESGGGSVQAGGFLRLSCVASGYGYCGYDMSWYRQVPGKEREFVALITSDRSVSYEDSVKGRFSISRDNAKNTAYLEMNRLTPDDTAVYYCKTSTAARENNWCRSRYRIAYWGQGTQVTVSS
binds	hIL12Rb1_VHH4 (VHH, Camel VHH) VHH: QVQLQESGGGSVQAGGSLRLSCVASGYGYCGYDMSWYRQTPGKEREFVALITSDRIASYEDSVKGRFIISRDNAKNTGYLDMTRVTPDDTAIYYCKTSAAARENSWCRSRYRVASWGQGTQVTVSS
binds	hIL12Rb1_VHH2 (VHH, Camel VHH) VHH: QVQLQESGGGSVQAGGSLRLSCTASGYTYSSAFMAWFRQAPGKEREGVAAIYTRDGGTVYADSVKGRFTISQDNAKNILYLQMNSLKAEDTAMYYCAAKIPQPGRASLLDSQTYDYWGQGTQVTVSS
binds	hIL12Rb1_VHH16 (VHH, Camel VHH) VHH: QVQLQESGGGSVQAGGSLRLSCTASGYTYSSAFMAWFRQAPGKEREGVAAMYTRDGGTVYADSVKGRFTISQDNAKNTLYLQIHTLKAEDTAMYYCAAKIPQPGRASLLDSQTYDYWGQGTQVTVSS
binds	hIL12Rb1_VHH21 (VHH, Camel VHH) VHH: QVQLQESGGGSVQAGGSLRLSCTASGYTYSSAFMAWFRQAPGKEREGVAAMYTRDGGTVYADSVKGRFTISQDNAKNTLYLQMNSLKTEDTAMYYCAAKIPQPGRASLLDSQTYDYWGQGTQVTVSS
binds	hIL12Rb1_VHH15 (VHH, Camel VHH) VHH: QVQLQESGGGSVQAGGSLRLSCAVSGYDYCGYDVRWYRQAPGKEREFVSGINSDGSTSYADSVKGRFTISQDNAENTSYLHMFSLKPEDTAMYYCKTESPAGESAWCRNFRGMDYWGKGTQVTVSS
binds	hIL12Rb1_VHH19 (VHH, Camel VHH) VHH: QVQLQESGGGSVQAGGSLRLSCAVSGYDYCGYDVRWYRQAPGKEREFVSGINSDGSTSYADSVKGRFTISQDNAENTSYLHMFSLKPEDTAMYYCKTEGPAGESAWCRNFRGMDYWGKGTQVTVSS
binds	hIL12Rb1_VHH8 (VHH, Camel VHH) VHH: QVQLQESGGGSVQAGGSLRLSCVASGYSYCGYDMMWYRQAPGKEREFVALITSDYSIRYEDSVEGRFSISRDNAKNTGYLLMSNLTPADTAIYYCKTSTAARESSWCRSRYRVASWGQGTQVTVSS

The remaining lines, values behind:

Binder	binding result
hIL12Rb1_VHH17 (VHH, Camel VHH) VHH: QVQLQESGGGSVQAGGFLRLSCVASGYGYCGYDMSWYRQVPGKEREFVALITSDRSVSYEDSVKGRFSISRDNAKNTAYLEMNRLTPDDTAIYYCKTSTAARENNWCRSRYRIASWGQGTQVTVSS	binds
hIL12Rb1_VHH13 (VHH, Camel VHH) VHH: QVQLQESGGGSVQAGGFLRLSCVASGYGYCGYDMSWYRQAPGKEREFVALITSERVISYEDSVKGRFSISRDNAENTGYLEMNRLTPDDTAIYYCKTSAAARESSWCRSRYRVASWGQGTQVTVSS	binds
hIL12Rb1_VHH22 (VHH, Camel VHH) VHH: QVQLQESGGGSVQAGGSLRLSCTASGYTYSSAFMAWFRQAPGKEREGVAAIYTRDGGTVYADSVKGRFTISQDNAKNTLYLQMNSLKAEDTAMYYCAAKIPQPGRASLLDSQTYDYWGQGTQVTVSS	binds
hIL12Rb1_VHH12 (VHH, Camel VHH) VHH: QVQLQESGGGSVQAGGSLRLSCTASGYTYSSAFMAWFRQAPGKEREGVAAIYTRDGGTVYADSVKGRFTISQDNAKNTLYLQMNSLKPEDTAMYYCAAKMPQPGRASLLDSQTYDYWGQGTQVTVSS	binds
hIL12Rb1_VHH20 (VHH, Camel VHH) VHH: QVQLQESGGGSVQAGGSLRLSCTASGYTYSSAFMAWFRQAPGKEREGVAAIYTRDGSPVYADSLKGRFTISQDNAKNTLHLQMNSLKPEDTAMYYCAAKIPEPGRISLLDSQTYDYWGHGTQVTVSS	binds
hIL12Rb1_VHH6 (VHH, Camel VHH) VHH: QVQLQESGGGSVQAGGSLRLSCAASRYTYTNNFMAWFRQAPGKEREGVAAIYTGDGYAYYFYSVKGRFTISQDNDENMLYLQMNSLKPEDTAMYYCAAMERRIGTRRMTENAEYKYWGQGTQVTVSS	binds
hIL12Rb1_VHH18 (VHH, Camel VHH) VHH: QVQLQESGGGSVQAGGSLRLSCAASRYTYTNNFMAWFRQAPGKEREGVAAIYTGDGYAYYFDSVKGRFTISQDNDKNMLYLQMNSLKPEDTAMYYCAAMERRSGRRRMTENAEYKYWGQGTQVTVSS	binds
hIL12Rb1_VHH11 (VHH, Camel VHH) VHH: QVQLQESGGGSVQAGGSLRLSCAVSGYDYCGYDVRWYRQAPGKEREFVSGIDSDGSTSYADSVKGRFTISQDNAENTSYLHMFSLKPEDTAMYYCKTESPAGESAWCRNFRGMDYWGKGTQVTVSS	binds
hIL12Rb1_VHH3 (VHH, Camel VHH) VHH: QVQLQESGGGSVQAGGSLRLSCVASGYSYCGYDMMWYRQAPGKEREFVALITSDYSIRYEDSVEGRFSISRDNAKNTGYLLMSNLTPADTAIYYCKTSTAARESSWCRSRYRVASWGQGTQVTVSS	binds
hIL12Rb1_VHH9 (VHH, Camel VHH) VHH: QVQLQESGGGSVQAGGSLRLSCVASGYSYCGYDMMWYRQAPGKEREFVALITSDYSIRYEDSVEGRFSISRDNAKNTGYLLMSNLTPADTAIYYCKTSTAARESGWCRSRYRVASWGQGTQVTVSS	binds
